Assay results published in patent US20240002528A1 (University of Texas, published 2024).

T1: full-length human cystinosin-LKG with a C-terminal Flag tag (human, UniProt O60931-2 23-400, limits assumed)
T1 construct: Expressed in HEK-293S GnTI- cells and purified in DDM then digitonin; It was reconstituted in amphipols for immunisation; also called recombinant human Cystinosin; wild-type (WT) human Cystinosin; not shown: C-terminal Flag tag
T1 sequence (looked up): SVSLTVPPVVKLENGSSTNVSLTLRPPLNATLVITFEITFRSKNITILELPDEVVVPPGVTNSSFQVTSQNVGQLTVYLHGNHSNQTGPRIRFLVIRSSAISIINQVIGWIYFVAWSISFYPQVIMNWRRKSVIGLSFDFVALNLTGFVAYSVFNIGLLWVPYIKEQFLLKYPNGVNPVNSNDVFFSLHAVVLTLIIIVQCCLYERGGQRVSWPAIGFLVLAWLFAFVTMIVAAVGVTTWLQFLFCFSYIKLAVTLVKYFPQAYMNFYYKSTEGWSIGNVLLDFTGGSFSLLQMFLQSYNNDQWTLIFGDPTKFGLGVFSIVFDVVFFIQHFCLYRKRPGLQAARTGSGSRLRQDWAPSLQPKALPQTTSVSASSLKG

B1: Fab3H5 (Fab fragment of IgG-3H5 generated by papain cleavage) (Fab, V domains shown)
VH: EVMLVESGGGLVKPGGSLKLSCAASGFTFSNYAMSWVRQTPEKRLEWVAAISGNEGTYTYYPDSVRGRFTISRDNARNNLYLQISSLRSEDTALYYCARYGLVGALDFWGQGAS
VL: DIQMNQSPSTLSASLGDTITITCRASQNIDVWLNWYQQKPGDIPKLLIYEASNLHTGVPSRFSGSGSGTDFTLAISSLQPEDIATYYCLQGQDYPFTFGSGTK
notes: The reaction was stopped with iodoacetamide
B2: IgG-3H5, a mouse monoclonal anti-human Cystinosin antibody (antibody, V domains shown)
VH: B1 VH
VL: B1 VL
notes: also called 3H5 antibody; monoclonal antibody 3H5

What was measured:
[1] = target: T1, full-length human cystinosin-LKG with a …; test: size-exclusion chromatography (gel filtration) of Cystinosin incubated with Fab3H5 at a 1:1.5 molar ratio, with a polyacrylamide gel of the peak fraction; the sheet is marked pH7.0
Experimental: To assemble Cystinosin-Fab^3H5 complex, purified Cystinosin was incubated with Fab^3H5 at a 1:1.5 molar ratio at 4° C. for 30 minutes. The mixture was then purified by SEC using the aforementioned buffer (FIG. 1A). Peak fractions were collected and concentrated to […]. The isolated complex was then used for functional and structural studies. In particular the complex was used in Cryo-EM studies.

[2] = target: T1, full-length human cystinosin-LKG with a …; test: ELISA and immunoprecipitation screen of hybridoma supernatants; ELISA and immunoprecipitation screen of hybridoma clone (folded cystinosin)

Row | Binder | binding result [1] | binding result [2]
1 | B1 | binds | 
2 | B2 |  | binds
